Measured values reported in publication PMC12607895.

What was measured:
[1] = biological target: coxsackievirus and adenovirus receptor (CAR) (UniProt P78310); assay: SPR; Biacore T200; CD46 or CAR amine-coupled to a CM5 chip (2,390-2,640 RU CD46, 2,380-2,870 RU CAR); whole virions as analyte, twofold series 50-12.5 µg/mL, 120 s at 30 µL/min; 25°C, HBS-EP+ (10 mM HEPES, 150 mM NaCl, 3 mM EDTA, 0.005% P20, pH 7.4); performed once
CD46 (human) = CD46 (human) (UniProt P15529); assay: as above
CD46 (human), sequence (P15529 35-392): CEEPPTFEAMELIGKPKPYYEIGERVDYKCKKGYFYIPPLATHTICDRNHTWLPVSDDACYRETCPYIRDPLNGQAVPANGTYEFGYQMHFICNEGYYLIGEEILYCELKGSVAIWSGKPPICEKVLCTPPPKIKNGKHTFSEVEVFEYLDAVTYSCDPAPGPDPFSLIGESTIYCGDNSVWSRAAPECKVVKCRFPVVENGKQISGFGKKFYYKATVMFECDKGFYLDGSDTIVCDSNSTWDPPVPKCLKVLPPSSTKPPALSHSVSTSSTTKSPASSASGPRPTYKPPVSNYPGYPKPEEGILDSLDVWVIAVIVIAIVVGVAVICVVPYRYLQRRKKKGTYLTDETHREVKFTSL

coxsackievirus and adenovirus receptor (CAR), sequence (P78310 20-365): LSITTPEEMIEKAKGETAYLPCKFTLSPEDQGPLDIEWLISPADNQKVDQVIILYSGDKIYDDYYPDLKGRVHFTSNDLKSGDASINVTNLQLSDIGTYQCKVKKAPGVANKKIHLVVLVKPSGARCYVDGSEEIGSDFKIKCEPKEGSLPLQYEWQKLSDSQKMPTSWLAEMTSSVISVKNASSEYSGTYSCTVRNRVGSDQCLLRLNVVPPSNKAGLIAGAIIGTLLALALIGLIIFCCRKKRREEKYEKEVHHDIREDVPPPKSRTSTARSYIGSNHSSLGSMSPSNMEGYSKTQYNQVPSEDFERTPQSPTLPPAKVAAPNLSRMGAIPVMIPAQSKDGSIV

Substance	Kd [1] [nM]	Kd (CD46 (human)) [nM]
HAdV-D26 virion (complex)	0.076	–
HAdV-B11 virion (complex)	–	0.0048
HAdV-D37 virion (complex)	–	0.1
HAdV-D39 virion (complex)	–	0.1
